In article PMC4823042, “Transcription factor LSF (TFCP2) inhibits melanoma growth”:

T1: LSF (Late SV40 factor 3) (human, UniProt Q12800 1-502)
T1 sequence: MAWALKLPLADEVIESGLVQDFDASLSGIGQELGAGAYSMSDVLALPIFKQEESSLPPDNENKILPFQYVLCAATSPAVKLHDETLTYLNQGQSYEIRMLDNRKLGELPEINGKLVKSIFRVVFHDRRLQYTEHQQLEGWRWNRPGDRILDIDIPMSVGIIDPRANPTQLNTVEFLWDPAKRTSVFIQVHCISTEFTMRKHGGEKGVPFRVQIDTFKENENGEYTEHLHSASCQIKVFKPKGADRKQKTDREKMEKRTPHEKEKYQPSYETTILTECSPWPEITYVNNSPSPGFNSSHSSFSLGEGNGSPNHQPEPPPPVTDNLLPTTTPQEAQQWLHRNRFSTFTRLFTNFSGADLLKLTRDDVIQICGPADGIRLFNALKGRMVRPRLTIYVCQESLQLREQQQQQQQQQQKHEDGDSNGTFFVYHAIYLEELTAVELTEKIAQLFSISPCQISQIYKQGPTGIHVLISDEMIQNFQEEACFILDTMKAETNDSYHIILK

B1: p21 promoter #4 (dsDNA)
DNA 1: GCCTCCTTGAGGCGGGCCCGGGCGGGGCGGT
DNA 2: TACAACCGCCCCGCCCGGGCCCGCCTCAAGG
B2: p21 promoter #2 (dsDNA)
DNA 1: GCTGGAACTCGGCCAGGCTCAGCTGGCTCGG
DNA 2: AGCGCCGAGCCAGCTGAGCCTGGCCGAGTTC
B3: p21 promoter #1 mutant (dsDNA)
DNA 1: GCACGCGAGGTTACGTGACCGTATGTCCTGC
DNA 2: TCCAGCAGGACATACGGTCACGTAACCTCGC
B4: p21 promoter #1 (dsDNA)
DNA 1: GCACGCGAGGTTCCGGGACCGGCTGGCCTGC
DNA 2: TCCAGCAGGCCAGCCGGTCCCGGAACCTCGC
B5: p21 promoter #3 (dsDNA)
DNA 1: GCTGGCTCGGCGCTGGGCAGCCAGGAGCCT
DNA 2: GCCCAGGCTCCTGGCTGCCCAGCGCCGAGCC
B6: p21 promoter #4 mutant (dsDNA)
DNA 1: GCCTCCTTGAGTAGGTCCCGGTAGGTGCGGT
DNA 2: TACAACCGCACCTACCGGGACCTACTCAAGG

Molecular target: T1, LSF (Late SV40 factor 3)
Assay: EMSA; LightShift Chemiluminescent EMSA kit per manufacturer; 7% PAGE in 0.5x TBE; binding buffer, pH and temperature not stated
Conditions: protein: ivt, tags: FLAG, chain copies: 4, label: biotin end label
[1] = 5' overhangs 4 nt on both strands

Row | Binder | binding result [1] | binding result (5' overhangs 3 nt (top) and 4 nt (bottom))
1 | B1 | binds | –
2 | B2 | binds | –
3 | B3 | no binding | –
4 | B4 | binds | –
5 | B5 | – | binds
6 | B6 | no binding | –
